Experiments:
FLT3/ITD in MV411 cells = molecular target: T1, FLT3/ITD in MV411 cells (Homo sapiens, UniProt P36888, INS600HVDFREYEYD); assay: FL stimulation, FLT3 phosphorylation in MV411 cells; format: cell-based
T1 construct: endogenous in cells; host or cells: MV411
T1 sequence (P36888 with tags, fused parts or gaps INS600HVDFREYEYD): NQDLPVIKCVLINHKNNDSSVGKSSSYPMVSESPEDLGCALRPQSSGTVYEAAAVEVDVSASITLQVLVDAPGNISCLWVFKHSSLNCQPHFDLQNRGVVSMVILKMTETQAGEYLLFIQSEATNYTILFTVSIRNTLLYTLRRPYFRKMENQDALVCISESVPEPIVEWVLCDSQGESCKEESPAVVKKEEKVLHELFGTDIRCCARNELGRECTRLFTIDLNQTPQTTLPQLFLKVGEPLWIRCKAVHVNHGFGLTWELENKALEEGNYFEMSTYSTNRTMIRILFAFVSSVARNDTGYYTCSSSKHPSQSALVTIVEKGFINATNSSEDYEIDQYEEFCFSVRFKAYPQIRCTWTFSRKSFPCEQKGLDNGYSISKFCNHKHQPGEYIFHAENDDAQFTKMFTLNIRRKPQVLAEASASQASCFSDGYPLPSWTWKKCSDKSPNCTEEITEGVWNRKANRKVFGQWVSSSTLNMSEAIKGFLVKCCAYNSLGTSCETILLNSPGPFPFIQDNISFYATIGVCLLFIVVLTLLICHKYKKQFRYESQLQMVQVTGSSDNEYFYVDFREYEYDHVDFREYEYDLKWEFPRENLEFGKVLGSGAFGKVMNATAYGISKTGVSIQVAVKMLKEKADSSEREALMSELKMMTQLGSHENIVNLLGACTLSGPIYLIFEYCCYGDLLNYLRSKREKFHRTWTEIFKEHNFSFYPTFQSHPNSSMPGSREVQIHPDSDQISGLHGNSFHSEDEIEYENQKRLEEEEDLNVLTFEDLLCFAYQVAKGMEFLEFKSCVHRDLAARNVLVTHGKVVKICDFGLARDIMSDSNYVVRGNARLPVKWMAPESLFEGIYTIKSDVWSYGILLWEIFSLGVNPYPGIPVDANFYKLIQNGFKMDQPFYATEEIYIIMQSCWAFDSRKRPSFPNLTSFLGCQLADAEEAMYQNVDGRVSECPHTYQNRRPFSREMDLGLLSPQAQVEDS

[1] = tested on: FL−/− primary hematopoietic progenitor cells expressing FLT3/ITD or FLT3/TKD; assay: Colony-replating assay of FL−/− bone marrow progenitors transduced with FLT3 mutants, with FL; format: cell-based, mice
Text: Bone marrow was harvested from FL^−/− mice, lineage depleted (Lineage Cell Depletion kit; Militenyibi Biotec, Auburn Calif.), and transduced with EF1-ITD-UBC-GFP, EF1-TKD-UBC-GFP, or EF1-UBC-GFP lentivirus by 3 rounds of spin-infection on days 1, 2 and 3. The EF1-ITD-UBC-GFP vector was constructed by inserting full-length FLT3/ITD in EF1-UBC-GFP lentiviral vector. The EF1-TKD-UBC-GFP was constructed by inserting wtFLT3 into the EF1-UBC-GFP followed by mutagenesis of wtFLT3 to substitute nucleotide G of D835 with T resulting in an Aspartic acid to Tyrosine change (QuickChange Site-Directed Mutagenesis Kit; Stratagene, La Jolla, Calif.). GFP positive cells were then sorted by FACS. 10^3 cells were plated into triplicate 35 mm Petri dishes (Nunc) in 1 ml of Methocult M3434 (StemCell Technologies Inc., Vancouver) containing 50 ng/mL rm SCF, 10 ng/mL rm IL-3, 10 ng/mL rh IL-6, and 3 units/mL rh Erythropoietin. Cultures were incubated at 37° C. in a humidified atmosphere of 5% CO2, and colonies consisting of >35 cells were scored after 9-11 days. For the colony-replating assay all cells from the previous culture were collected and re-plated at 1×10^4 cells/plate in fresh methylcellulose medium. All cells were replated three times.
To evaluate the effect of FL stimulation on primary hematopoietic progenitor cells expressing FLT3 mutants, lineage negative progenitors were harvested from FL^−/− mice and transduced with FLT3/ITD-GFP, FLT3/TKD-GFP, or GFP control lentivirus. GFP-positive cells were selected by FACS, cultured in methylcellulose with and without FL, and the colony numbers were counted after 9 days.
After colonies were counted, all of the cells in each culture dish were harvested from the methylcellulose, washed and re-plated in fresh methylcellulose medium to examine their potential to form colonies upon secondary plating; this process was repeated for two more passages to determine the frequency of tertiary and quaternary colonies. […]

[2] = tested on: TF1/ITD and TF1/TKD cells; assay: Apoptosis (Annexin V/7AAD) and survival of TF1/ITD and TF1/TKD cells with FL; format: cell-based; conditions: for survival (viable cell numbers): serum free medium; for apoptotic population: serum-free, 48 hours, presence of FL
Description: Evaluation of apoptosis was performed by annexin V/7-AAD staining according to the recommendations of the manufacturer (Becton Dickinson, San Jose, Calif.). After serum starvation, 5×10^5 cells were washed with cold PBS and re-suspended in 100 μL of binding buffer. Following incubation with 5 μL of annexin V-PE and 5 μL of 7-AAD in the dark for 15 minutes at room temperature, cells were analyzed by flow cytometry (FACSort, Becton Dickinson) with Cell Quest software (Becton Dickinson). Compensation was performed with samples stained with either annexin V-PE or 7-AAD alone.
2×10^4 cells in 100 μl serum-free medium were plated into triplicate wells of 96-well plates. Survival was assessed by MTT assay (Roche, Indianapolis, Ind.) and viable cell number counting by trypan blue (GIBCO, Rockville, Md.) exclusion according to the manufacturer's instructions.
The possibility of further activation of FLT3 mutant receptors by exogenous FL was also tested in cell lines in which FL autocrine, paracrine, or intracrine stimulation of FLT3 receptor might exist. […] TF1 cells expressing FLT3 mutant receptors were starved for 16 hours in serum-free medium and washed once with PBS to deplete soluble FL (either produced by the cells or contained in the serum). These cells were then stimulated with exogenous FL for 15 minutes. More than 2-fold enhancement of FLT3 phosphorylation was detected in both TF1/ITD and TF1/TKD cell lines (FIG. 12A). […] To assess the functional effect of exogenous FL, TF1/ITD and TF1/TKD cells were cultured in serum-free medium in the absence and presence of FL for 48 hours. Apoptosis was assessed by Annexin V and 7AAD staining followed by FACS analysis. […] There was no change of cell cycle status in response to FL in these cells (data not shown).

B1: FL: Recombinant human FL (fms-related tyrosine kinase ligand) purchased from PeproTech; SEQ ID NO: 1 (protein, listed as Homo sapiens)
chain: MTVLAPAWSPTTYLLLLLLLSSGLSGTQDCSFQHSPISSDFAVKIRELSDYLLQDYPVTVASNLQDEELCGGLWRLVLAQRWMERLKTVAGSKMQGLLERVNTEIHFVTKCAFQPPPSCLRFVQTNISRLLQETSEQLVALKPWITRQNFSRCLELQCQPDSSTLPPPWSPRPLEATAPTAPQPPLLLLLLLPVGLLLLAAAWCLHWQRTRRRTPRPGEQVPPVPSPQDLLLVEH
phosphorylation of FLT3 (FLT3/ITD in MV411 cells): increased phosphorylation
number of first-generation colonies ([1]; BM cells transduced with FLT3 mutants, 9 days): slightly increased
re-plating activity upon serial passages ([1]; BM cells transduced with FLT3 mutants, cultured in presence of FL): retained their re-plating activity
colony size ([1]; FL−/− BM cells expressing FLT3 mutants stimulated with FL): significant increase in colony size
cell cycle status in response to FL ([2]; TF1/ITD and TF1/TKD): no change
survival (viable cell numbers) ([2]; TF1/ITD): increased the survival
apoptotic population ([2]; TF1/ITD): 49.54%
survival (viable cell numbers) ([2]; TF1/TKD): no significant difference
apoptotic population ([2]; TF1/TKD): 31.63%

From US20130156764A1, “NEUTRALIZATION OF FLT3 LIGAND AS A LEUKEMIA THERAPY” (The Johns Hopkins University, priority 2010, published 2013)
